Measured values: patent publication US20190125929A1

Assays:
[1] = molecular target: decellularized extracellular matrix derived from TSP2 KO mouse dermal fibroblasts (mouse); test: AFM adhesion force, vWF-conjugated 2 µm bead on decellularized ECM (n=5)
[2] = molecular target: decellularized extracellular matrix derived from wild-type (WT) mouse dermal fibroblasts (mouse); test: as above

“Recombinant von Willebrand Factor (vWF) (Millipore), conjugated via EDC/NHS chemistry to a 2 µm carboxylated polystyrene bead on an AFM cantilever” was tested, and the adhesion force [1] was 16.5 pN and the adhesion force [2] was 53.8 pN.
